In PMC2743173 (Neuron, 2008):

B1: MuSK-AP (domain or fragment)
chain: EKLPKAPVITTPLETVDALVEEVATFMCAVESYPQPEISWTRNKILIKLFDTRYSIRENGQLLTILSVEDSDDGIYCCIANNGVGGAVESCGALQVKMKPKITRPPINVKIIEGLKAVLPCTTMGNPKPSVSWIKGDNALRENSRIAVLESGSLRIHNVQKEDAGQYRCVAKNSLGTAYSKLVKLEVEVFARILRAPESHNVTFGSFVTLRCTAIGIPVPTISWIENGNAVSSGSIQESVKDRVIDSRLQLFITKPGLYTCIATNKHGEKFSTAKAAATVSIAEWSKSQKDSQGYCAQYRGEVCDAVLAKDALVFFNTSYRDPEDAQELLIHTAWNELKAVSPLCRPAAEALLCNHLFQECSPGVVPTPMPICREYCLAVKELFCAKEWQAMEGKAHRGLYRSGMHLLPVPECSKLPSMHRDPTACTRLPYLDYKKENITTFPSITSSRPSADIPNLPASTSSFAVSPAYSMT

How the values were obtained:
LRP4N-Myc [1] = target: LRP4N-Myc (UniProt Q9QYP1); experiment: ELISA
Chain of LRP4N-Myc (UniProt Q9QYP1) (Q9QYP1 21-1723): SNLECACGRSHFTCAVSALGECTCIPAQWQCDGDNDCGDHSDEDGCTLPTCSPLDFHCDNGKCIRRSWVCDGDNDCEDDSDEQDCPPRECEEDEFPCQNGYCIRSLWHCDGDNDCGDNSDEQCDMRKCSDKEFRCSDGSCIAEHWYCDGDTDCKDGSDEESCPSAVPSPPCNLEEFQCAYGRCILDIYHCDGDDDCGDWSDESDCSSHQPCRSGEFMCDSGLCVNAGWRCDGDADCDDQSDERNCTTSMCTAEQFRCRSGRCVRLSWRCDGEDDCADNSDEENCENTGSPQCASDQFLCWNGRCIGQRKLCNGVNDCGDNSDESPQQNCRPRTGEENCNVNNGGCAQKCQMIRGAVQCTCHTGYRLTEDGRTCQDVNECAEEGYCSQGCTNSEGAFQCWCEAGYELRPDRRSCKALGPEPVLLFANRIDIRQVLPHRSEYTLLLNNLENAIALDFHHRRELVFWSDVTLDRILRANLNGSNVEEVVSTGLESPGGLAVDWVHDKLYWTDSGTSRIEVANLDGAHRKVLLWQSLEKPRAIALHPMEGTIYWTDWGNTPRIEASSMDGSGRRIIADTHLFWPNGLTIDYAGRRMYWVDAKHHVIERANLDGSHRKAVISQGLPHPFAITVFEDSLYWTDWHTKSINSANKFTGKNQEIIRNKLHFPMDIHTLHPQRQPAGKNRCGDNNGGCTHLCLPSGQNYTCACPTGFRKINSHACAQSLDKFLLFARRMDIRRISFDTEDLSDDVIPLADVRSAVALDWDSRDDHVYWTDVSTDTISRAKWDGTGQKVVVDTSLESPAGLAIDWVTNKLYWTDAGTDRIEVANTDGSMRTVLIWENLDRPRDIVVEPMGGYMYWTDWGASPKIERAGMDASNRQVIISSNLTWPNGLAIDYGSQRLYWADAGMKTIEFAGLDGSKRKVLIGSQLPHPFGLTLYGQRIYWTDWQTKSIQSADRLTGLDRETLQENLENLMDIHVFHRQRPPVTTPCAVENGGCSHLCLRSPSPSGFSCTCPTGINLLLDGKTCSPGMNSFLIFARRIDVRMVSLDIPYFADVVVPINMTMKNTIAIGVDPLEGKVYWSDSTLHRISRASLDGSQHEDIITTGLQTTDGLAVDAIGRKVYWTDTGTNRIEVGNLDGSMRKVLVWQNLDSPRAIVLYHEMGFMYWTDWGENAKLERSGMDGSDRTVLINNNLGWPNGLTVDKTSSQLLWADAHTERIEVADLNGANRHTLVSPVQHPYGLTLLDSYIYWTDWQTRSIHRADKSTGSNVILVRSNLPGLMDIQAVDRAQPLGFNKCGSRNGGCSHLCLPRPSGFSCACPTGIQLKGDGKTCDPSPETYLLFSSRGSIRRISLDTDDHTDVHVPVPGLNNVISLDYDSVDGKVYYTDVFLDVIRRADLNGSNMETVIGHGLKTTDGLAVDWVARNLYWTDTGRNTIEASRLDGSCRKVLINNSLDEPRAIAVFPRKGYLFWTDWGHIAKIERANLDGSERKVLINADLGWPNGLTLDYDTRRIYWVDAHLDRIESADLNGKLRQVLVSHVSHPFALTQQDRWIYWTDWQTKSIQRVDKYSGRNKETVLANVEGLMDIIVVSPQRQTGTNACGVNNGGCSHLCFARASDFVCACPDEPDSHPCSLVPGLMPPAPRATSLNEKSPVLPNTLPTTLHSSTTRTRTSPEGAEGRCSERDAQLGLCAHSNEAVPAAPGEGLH

LRP4N-Myc [2] = target: LRP4N-Myc (UniProt Q9QYP1 21-1723); experiment: ELISA
Chain of LRP4N-Myc (UniProt Q9QYP1 21-1723) (Q9QYP1 21-1723): as above

Molecule | Kd (LRP4N-Myc [1]) [pM] | Kd (LRP4N-Myc [2]) [pM]
nAgrin-AP (domain or fragment) | 500 | –
B1 | – | 450 ± 41
